Our source for the Kd values is paper PMC9582721, “Hepatitis C virus nonstructural protein NS3 unfolds viral G-quadruplex RNA structures”.

Data set [1] deals with T1, NS3 (nonstructural protein 3, protease-helicase) (Hepatitis C virus genotype 1b (con1b), UniProt Q9WMX2 1027-1657). As to the kind of experiment: fluorescence anisotropy; 100 mM KCl; 25 mM MOPS pH 6.5, 100 mM KCl, 0.1 mM EDTA, 2 mM beta-mercaptoethanol, 0.1 mg/ml BSA, 37 C, 30 min; RNA 2 nM unless stated, folded in 100 mM KCl. The note with it: protein: recombinant, label: 3'-6FAM. A general note: In fluorescence polarisation assays a small probe gives low polarisation when free and higher when bound to something large.

Data set [2] deals with T1, NS3 (nonstructural protein 3, …). Put plainly: fluorescence anisotropy; 100 mM KCl; 6 nM RNA; 25 mM MOPS pH 6.5, 100 mM KCl, 0.1 mM EDTA, 2 mM beta-mercaptoethanol, 0.1 mg/ml BSA, 37 C, 30 min; RNA 2 nM unless stated, folded in 100 mM KCl. The settings on record: protein: recombinant; label: 3'-6FAM; parallel G4 with 3' overhang 20 nt.
Data set [3] shares this target. Put plainly: fluorescence anisotropy; 100 mM KCl; same data, two-sites fit, Kd1; 25 mM MOPS pH 6.5, 100 mM KCl, 0.1 mM EDTA, 2 mM beta-mercaptoethanol, 0.1 mg/ml BSA, 37 C, 30 min; RNA 2 nM unless stated, folded in 100 mM KCl. The note with it: protein: recombinant; label: 3'-6FAM; single-stranded.
For data set [4] the target is unchanged. As to the kind of experiment: fluorescence anisotropy; 100 mM KCl; quadratic fit; 25 mM MOPS pH 6.5, 100 mM KCl, 0.1 mM EDTA, 2 mM beta-mercaptoethanol, 0.1 mg/ml BSA, 37 C, 30 min; RNA 2 nM unless stated, folded in 100 mM KCl. The settings on record: protein: recombinant; label: 3'-6FAM; single-stranded.
Data set [5] has the same target. As to the kind of experiment: fluorescence anisotropy; 100 mM KCl; 5.4 nM RNA; 25 mM MOPS pH 6.5, 100 mM KCl, 0.1 mM EDTA, 2 mM beta-mercaptoethanol, 0.1 mg/ml BSA, 37 C, 30 min; RNA 2 nM unless stated, folded in 100 mM KCl. The settings on record: protein: recombinant; label: 3'-6FAM; parallel G4 with 3' overhang 20 nt.

T1 sequence (Q9WMX2 1027-1657): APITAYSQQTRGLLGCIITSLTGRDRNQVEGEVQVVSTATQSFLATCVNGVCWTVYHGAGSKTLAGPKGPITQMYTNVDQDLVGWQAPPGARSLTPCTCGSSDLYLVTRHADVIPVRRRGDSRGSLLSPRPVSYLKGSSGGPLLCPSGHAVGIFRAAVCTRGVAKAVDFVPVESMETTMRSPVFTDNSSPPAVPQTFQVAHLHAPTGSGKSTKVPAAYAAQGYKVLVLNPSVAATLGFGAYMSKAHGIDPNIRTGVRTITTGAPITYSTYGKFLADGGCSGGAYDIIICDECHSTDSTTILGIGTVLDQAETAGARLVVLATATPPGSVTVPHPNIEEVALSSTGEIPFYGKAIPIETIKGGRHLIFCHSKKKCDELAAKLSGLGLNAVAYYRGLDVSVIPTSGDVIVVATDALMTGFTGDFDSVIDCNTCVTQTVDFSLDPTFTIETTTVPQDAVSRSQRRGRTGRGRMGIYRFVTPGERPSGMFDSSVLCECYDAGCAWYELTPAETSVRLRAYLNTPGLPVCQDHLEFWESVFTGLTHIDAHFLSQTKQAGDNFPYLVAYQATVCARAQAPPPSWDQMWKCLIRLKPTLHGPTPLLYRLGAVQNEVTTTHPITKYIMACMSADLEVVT

In general, Kd refers to the free concentration of one partner at which half of the binding sites on the other are occupied at equilibrium, for simple one-to-one binding. Turning to AAGGGCUGCGGGUGGGCAGGGAA (structured_RNA) [HCVG4], the dissociation constant (Kd) in data set [1] (parallel G4 (three-tetrad)) stood at 17 ± 4 nM.

Turning to AAGGGCUGCGGGUGGGCAGGGAAAAAAAAAAAAAAAAAAAA (structured_RNA) [HCVG4-A20], the equilibrium dissociation constant (Kd) in data set [2] stood at 11 ± 3 nM. In the case of AAGGGUGGGUGGGUGGGAA (structured_RNA) [NONHCVG4], the dissociation constant (Kd) in data set [1] (parallel G4 (three-tetrad)) worked out at 23 ± 7 nM.

For the molecule AAGGGUGGGUGGGUGGGAAAAAAAAAAAAAAAAAAAA (structured_RNA) [NONHCVG4-A20], the dissociation constant Kd in data set [2] was determined as 12 ± 3 nM. Regarding AAAAAAAAAAAAAAAAAAAA (ssRNA) [A20], the Kd came out at 4.9 nM in data set [3] and 6 ± 1 nM in data set [4]. Regarding AAGGGAGGGGGGGUCCUGGAGGAA (structured_RNA) [NEGG4], in data set [1] (parallel G4 (two-tetrad)), the dissociation constant (Kd) was determined as 19 ± 5 nM.

Take AAGGGAGGGGGGGUCCUGGAGGAAAAAAAAAAAAAAAAAAAA (structured_RNA) [NEGG4-A20]: the Kd in data set [5] worked out at 6 ± 2 nM.
